Test results published in patent publication US20220195407, “OPTIMIZATION OF ENGINEERED MEGANUCLEASES FOR RECOGNITION SEQUENCES” (Precision BioSciences, Inc., published 2022).

Key:
Experiment in all cases: cell_activity; CHO iGFFP reporter
LOX 3-4 M.15 = target: T1, LOX 3-4 M.15 (artificial (I-CreI derived))
T1 chain: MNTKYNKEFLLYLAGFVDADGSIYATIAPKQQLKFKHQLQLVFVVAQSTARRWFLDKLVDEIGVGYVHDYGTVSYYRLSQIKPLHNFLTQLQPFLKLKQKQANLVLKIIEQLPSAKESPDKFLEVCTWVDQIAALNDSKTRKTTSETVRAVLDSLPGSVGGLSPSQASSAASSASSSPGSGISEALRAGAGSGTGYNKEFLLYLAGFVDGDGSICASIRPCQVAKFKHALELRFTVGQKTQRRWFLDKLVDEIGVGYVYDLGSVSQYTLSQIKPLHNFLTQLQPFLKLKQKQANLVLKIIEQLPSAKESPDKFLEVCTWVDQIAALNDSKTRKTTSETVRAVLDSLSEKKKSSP
Source text: (§1) A CHO cell reporter system (see WO/2012/167192, FIG. 3) was used to determine whether the engineered meganucleases generated in these studies could recognize and cleave the modified LOX 3-4 recognition sequences in Table 87. To perform the assay, a pair of CHO cell reporter lines were produced, which carried a non-functional Green Fluorescent Protein (GFP) gene expression cassette integrated into the genome of the cell. The GFP gene in each cell line was interrupted by a pair of recognition sequences such that intracellular cleavage of either recognition sequence by a meganuclease would stimulate a homologous recombination event resulting in a functional GFP gene. In both cell lines, one of the recognition sequences was derived from the LOX 3-4 recognition sequence (i.e., those sequences disclosed in Table 87), and the second recognition sequence was specifically recognized by a control meganuclease called “CHO 23/24.” CHO reporter cells comprising a recognition sequence derived from the LOX 3-4 recognition sequence and the CHO 23/24 recognition sequence are referred to herein as “test cells.”
(§2) Novel engineered meganucleases derived from the LOX 3-4x.109 meganuclease were prepared by making amino acid substitutions at one or more positions in the first subunit. These engineered meganucleases were then evaluated for cleavage of the LOX 3-4 recognition sequence modified to have a GTAA center sequence (SEQ ID NO: 358) in the CHO reporter assay according to Example 1. Novel meganucleases which were modified to comprise the residues recited in the tables below were capable of cleaving the LOX 3-4 recognition sequence having a GTAA four base pair center sequence.

LOX 3-4 M.23 = target: T2, LOX 3-4 M.23 (artificial (I-CreI derived))
T2 chain: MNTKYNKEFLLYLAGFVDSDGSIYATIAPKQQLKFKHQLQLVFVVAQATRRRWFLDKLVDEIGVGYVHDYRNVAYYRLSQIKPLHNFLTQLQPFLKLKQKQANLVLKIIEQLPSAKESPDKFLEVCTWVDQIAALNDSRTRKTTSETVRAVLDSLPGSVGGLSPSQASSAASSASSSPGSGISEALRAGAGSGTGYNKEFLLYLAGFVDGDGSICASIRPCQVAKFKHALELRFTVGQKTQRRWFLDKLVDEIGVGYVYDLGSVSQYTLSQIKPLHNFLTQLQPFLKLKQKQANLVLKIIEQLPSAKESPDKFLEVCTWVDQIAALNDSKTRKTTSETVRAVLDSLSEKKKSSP
Source text: as §1, §2

LOX 3-4 M.6 = target: T3, LOX 3-4 M.6 (artificial (I-CreI derived))
T3 chain: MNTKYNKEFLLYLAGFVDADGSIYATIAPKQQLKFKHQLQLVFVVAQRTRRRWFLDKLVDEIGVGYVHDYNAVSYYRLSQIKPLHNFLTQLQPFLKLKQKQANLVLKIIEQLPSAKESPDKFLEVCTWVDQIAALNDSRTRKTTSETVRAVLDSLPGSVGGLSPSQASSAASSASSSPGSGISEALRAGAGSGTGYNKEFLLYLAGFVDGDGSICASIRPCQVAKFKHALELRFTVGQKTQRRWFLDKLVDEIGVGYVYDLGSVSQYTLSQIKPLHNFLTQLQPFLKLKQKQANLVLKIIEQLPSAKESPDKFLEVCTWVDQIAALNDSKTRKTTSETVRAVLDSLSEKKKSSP
Source text: as §1, §2

LOX 3-4m.1781 = target: T4, LOX 3-4m.1781 (artificial (I-CreI derived))
T4 chain: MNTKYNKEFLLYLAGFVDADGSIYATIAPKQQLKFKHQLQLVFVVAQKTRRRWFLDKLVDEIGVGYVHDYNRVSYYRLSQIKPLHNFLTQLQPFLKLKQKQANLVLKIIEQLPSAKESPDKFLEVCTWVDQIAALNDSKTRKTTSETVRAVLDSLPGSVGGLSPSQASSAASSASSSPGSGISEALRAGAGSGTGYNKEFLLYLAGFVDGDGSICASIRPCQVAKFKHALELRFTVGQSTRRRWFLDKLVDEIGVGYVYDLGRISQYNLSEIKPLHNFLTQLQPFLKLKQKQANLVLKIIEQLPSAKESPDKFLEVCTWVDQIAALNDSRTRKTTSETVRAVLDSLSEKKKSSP
Source text: as §1
(§3) Novel engineered meganucleases derived from the LOX 3-4x.109 meganuclease were prepared by making amino acid substitutions at one or more positions in the first subunit and one or more positions in the second subunit. These engineered meganucleases were then evaluated for cleavage of the LOX 3-4 recognition sequence modified to have a GCGA center sequence (SEQ ID NO: 314) in the CHO reporter assay according to Example 1.

LOX 3-4m.1745 = target: T5, LOX 3-4m.1745 (artificial (I-CreI derived))
T5 chain: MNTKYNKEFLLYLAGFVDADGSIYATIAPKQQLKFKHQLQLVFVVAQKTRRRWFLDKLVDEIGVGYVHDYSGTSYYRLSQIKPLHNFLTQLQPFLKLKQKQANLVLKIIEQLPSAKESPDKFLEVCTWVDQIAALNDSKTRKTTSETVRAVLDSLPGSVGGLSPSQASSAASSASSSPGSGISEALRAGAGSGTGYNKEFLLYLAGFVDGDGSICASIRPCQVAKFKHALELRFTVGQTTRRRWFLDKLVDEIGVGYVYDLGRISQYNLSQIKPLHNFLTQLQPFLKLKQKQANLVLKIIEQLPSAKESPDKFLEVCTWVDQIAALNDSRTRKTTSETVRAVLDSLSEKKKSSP
Source text: as §1, §3

LOX 3-4m.1780 = target: T6, LOX 3-4m.1780 (artificial (I-CreI derived))
T6 chain: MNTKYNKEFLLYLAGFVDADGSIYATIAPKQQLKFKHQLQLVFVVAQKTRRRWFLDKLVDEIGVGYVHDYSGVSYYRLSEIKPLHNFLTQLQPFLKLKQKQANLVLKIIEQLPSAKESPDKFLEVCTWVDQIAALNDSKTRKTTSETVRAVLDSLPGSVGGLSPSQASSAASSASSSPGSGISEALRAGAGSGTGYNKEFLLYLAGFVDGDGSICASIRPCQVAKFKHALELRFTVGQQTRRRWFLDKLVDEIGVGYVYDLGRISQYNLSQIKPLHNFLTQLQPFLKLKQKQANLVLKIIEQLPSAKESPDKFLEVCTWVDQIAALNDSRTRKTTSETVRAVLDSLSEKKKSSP
Source text: as §1, §3

LOX 3-4m.1782 = target: T7, LOX 3-4m.1782 (artificial (I-CreI derived))
T7 chain: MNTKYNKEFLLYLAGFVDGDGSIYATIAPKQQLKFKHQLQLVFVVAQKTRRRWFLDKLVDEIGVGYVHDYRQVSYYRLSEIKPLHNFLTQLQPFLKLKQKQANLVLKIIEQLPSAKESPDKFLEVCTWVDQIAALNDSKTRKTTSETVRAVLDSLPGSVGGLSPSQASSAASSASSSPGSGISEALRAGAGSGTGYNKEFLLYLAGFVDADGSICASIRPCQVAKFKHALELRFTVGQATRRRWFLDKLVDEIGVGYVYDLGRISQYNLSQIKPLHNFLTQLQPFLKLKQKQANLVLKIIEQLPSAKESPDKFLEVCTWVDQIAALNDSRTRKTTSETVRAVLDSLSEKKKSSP
Source text: as §1, §3

LOX 3-4m.1601 = target: T8, LOX 3-4m.1601 (artificial (I-CreI derived))
T8 chain: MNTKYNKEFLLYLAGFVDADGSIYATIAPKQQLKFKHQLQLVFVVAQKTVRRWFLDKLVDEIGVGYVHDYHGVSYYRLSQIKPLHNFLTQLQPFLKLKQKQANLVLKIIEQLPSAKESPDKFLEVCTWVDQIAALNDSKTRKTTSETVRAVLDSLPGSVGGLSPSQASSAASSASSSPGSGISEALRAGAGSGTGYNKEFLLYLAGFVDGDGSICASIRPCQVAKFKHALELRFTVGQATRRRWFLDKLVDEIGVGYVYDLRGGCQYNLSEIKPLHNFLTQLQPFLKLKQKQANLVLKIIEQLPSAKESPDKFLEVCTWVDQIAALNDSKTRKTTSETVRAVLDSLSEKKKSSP
Source text: as §1
as §2, with “first subunit and one or more positions in the second” for “first”, “GCAT” for “GTAA”, “292)” for “358)”, “1. The substitutions in each subunit are provided in Tables 151 and 152, respectively.” for “1.”, “continued to cleave” for “were capable of cleaving”

LOX 3-4m.1687 = target: T9, LOX 3-4m.1687 (artificial (I-CreI derived))
T9 chain: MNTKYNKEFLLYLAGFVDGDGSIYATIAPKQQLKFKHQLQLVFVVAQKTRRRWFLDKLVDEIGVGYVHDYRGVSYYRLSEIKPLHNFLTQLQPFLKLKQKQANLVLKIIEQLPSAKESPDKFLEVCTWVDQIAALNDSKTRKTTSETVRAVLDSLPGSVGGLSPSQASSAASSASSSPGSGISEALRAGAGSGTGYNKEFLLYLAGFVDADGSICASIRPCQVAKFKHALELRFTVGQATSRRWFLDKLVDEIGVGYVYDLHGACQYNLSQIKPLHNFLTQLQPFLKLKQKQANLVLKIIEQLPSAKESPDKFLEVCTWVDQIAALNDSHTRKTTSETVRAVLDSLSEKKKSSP
Source text: as §1
as §2, with “first subunit and one or more positions in the second” for “first”, “GCAT” for “GTAA”, “292)” for “358)”, “1. The substitutions in each subunit are provided in Tables 151 and 152, respectively.” for “1.”, “continued to cleave” for “were capable of cleaving”

LOX 3-4m.1679 = target: T10, LOX 3-4m.1679 (artificial (I-CreI derived))
T10 chain: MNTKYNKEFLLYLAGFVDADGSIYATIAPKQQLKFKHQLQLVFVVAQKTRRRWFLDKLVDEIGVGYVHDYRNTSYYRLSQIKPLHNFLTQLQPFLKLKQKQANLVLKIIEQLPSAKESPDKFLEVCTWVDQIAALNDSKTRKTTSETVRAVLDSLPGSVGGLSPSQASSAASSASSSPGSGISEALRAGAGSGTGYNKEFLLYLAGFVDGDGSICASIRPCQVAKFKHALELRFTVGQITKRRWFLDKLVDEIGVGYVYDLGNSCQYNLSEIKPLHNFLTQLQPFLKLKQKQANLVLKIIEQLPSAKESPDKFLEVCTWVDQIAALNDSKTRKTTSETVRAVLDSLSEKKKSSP
Source text: as §1
as §2, with “first subunit and one or more positions in the second” for “first”, “GCAT” for “GTAA”, “292)” for “358)”, “1. The substitutions in each subunit are provided in Tables 151 and 152, respectively.” for “1.”, “continued to cleave” for “were capable of cleaving”

LOX 3-4m.1689 = target: T11, LOX 3-4m.1689 (artificial (I-CreI derived))
T11 chain: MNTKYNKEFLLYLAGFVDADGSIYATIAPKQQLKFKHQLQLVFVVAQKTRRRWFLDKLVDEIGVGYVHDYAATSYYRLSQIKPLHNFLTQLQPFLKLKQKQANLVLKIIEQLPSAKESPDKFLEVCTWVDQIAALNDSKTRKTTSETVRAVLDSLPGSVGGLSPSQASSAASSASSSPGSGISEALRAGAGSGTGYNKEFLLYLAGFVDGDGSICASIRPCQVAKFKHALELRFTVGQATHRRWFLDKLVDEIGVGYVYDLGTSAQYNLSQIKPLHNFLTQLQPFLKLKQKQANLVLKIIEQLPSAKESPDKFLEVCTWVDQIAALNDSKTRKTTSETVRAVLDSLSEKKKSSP
Source text: as §1
as §2, with “first subunit and one or more positions in the second” for “first”, “GCAT” for “GTAA”, “292)” for “358)”, “1. The substitutions in each subunit are provided in Tables 151 and 152, respectively.” for “1.”, “continued to cleave” for “were capable of cleaving”

B1: LOX 3-4 GTAA (dsDNA)
DNA 1: GTATAGCATGTAATATACGAAG
DNA 2: CTTCGTATATTACATGCTATAC
- activity (LOX 3-4 M.15): 11.5 % GFP
- activity (LOX 3-4 M.23): 13.2 % GFP
- activity (LOX 3-4 M.6): 11.4 % GFP

B2: LOX 3-4 GCGA (dsDNA)
DNA 1: GTATAGCATGCGATATACGAAG
DNA 2: CTTCGTATATCGCATGCTATAC
- activity (LOX 3-4m.1781): 6.58 % GFP
- activity (LOX 3-4m.1745): 5.13 % GFP
- activity (LOX 3-4m.1780): 6.53 % GFP
- activity (LOX 3-4m.1782): 5.45 % GFP

B3: LOX 3-4 GCAT (dsDNA)
DNA 1: GTATAGCATGCATTATACGAAG
DNA 2: CTTCGTATAATGCATGCTATAC
- activity (LOX 3-4m.1601): 10.9 % GFP
- activity (LOX 3-4m.1687): 10.9 % GFP
- activity (LOX 3-4m.1679): 10.8 % GFP
- activity (LOX 3-4m.1689): 11.2 % GFP
